Measured values as given in paper PMC10505908.

T1: HMCES SRAP E127A E127A (human) (UniProt Q96FZ2)
T1 sequence: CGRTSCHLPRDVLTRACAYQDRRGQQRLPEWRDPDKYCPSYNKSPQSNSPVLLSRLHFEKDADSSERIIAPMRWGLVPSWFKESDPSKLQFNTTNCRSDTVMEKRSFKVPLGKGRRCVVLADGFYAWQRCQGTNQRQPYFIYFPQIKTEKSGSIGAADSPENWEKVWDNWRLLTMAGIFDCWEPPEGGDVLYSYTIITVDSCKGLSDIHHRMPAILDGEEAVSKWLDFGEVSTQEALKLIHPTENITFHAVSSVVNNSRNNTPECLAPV

T2: HMCES SRAP R98E R98E (human) (UniProt Q96FZ2)
T2 sequence: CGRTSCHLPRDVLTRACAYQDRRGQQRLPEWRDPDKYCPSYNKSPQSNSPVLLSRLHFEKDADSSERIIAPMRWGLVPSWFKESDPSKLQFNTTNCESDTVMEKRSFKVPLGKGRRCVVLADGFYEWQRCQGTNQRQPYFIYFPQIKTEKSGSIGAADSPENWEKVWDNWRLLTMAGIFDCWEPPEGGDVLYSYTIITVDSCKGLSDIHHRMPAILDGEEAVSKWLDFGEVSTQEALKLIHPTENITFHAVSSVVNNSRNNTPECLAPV

T3: HMCES SRAP E127A (human, UniProt Q96FZ2 2-270, E127A)
T3 sequence: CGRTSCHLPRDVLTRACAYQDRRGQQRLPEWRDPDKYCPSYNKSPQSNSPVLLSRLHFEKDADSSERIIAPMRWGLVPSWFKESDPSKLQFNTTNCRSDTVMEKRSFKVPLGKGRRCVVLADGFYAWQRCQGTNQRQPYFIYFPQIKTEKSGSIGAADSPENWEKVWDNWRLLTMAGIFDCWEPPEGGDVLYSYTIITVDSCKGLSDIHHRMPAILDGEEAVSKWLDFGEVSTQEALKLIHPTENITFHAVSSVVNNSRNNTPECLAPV


Key:
[1] = target: T1, HMCES SRAP E127A E127A (human); experiment: covalent DPC formation, SDS-PAGE; details: N15 = AP site from dU by UDG
[2] = target: T2, HMCES SRAP R98E R98E (human); experiment: covalent DPC formation, SDS-PAGE; details: N15 = AP site from dU by UDG
HMCES SRAP E127A = target: T3, HMCES SRAP E127A; experiment: fluorescence polarization

Molecule | binding signal (fraction crosslinked) [1] | binding signal (fraction crosslinked) [2] | binding result (HMCES SRAP E127A)
CCCAAAAAAAAAAANAAAAAAAAAAAACCC / GGGTTTTTTTTTTTTATTTTTTTTTTTGGG [30mer AP site dsDNA] | 0 | 0 | –
CCCAAAAAAAAAAATAAAAAAAAAAAACCC (ssDNA) [30mer dT-oligonucleotide] | – | – | binds
